Measurements: patent US20180148477A1 (published 2018)
Several values for one entry are separate records, joined by “and”; a condition that tells them apart may be missing. Identical values can stand only once. Bridge positions count the residues as written; N and C are the ends. Square brackets hold non-standard residues; d marks the D form. Ends that are not written are not given here. Phe(4-tBu) = CC(C)(C)c1ccc(C[C@H](N)C(=O)O)cc1; Bip = N[C@@H](Cc1ccc(-c2ccccc2)cc1)C(=O)O; 1Nal = N[C@@H](Cc1cccc2ccccc12)C(=O)O; 2Nal = N[C@@H](Cc1ccc2ccccc2c1)C(=O)O; NMeR = CN[C@@H](CCCNC(=N)N)C(=O)O; Tic = O=C(O)[C@@H]1Cc2ccccc2CN1; β3hE = N[C@@H](CCC(=O)O)CC(=O)O; NMeK = CN[C@@H](CCCCN)C(=O)O; Pen = CC(C)(S)[C@H](N)C(=O)O; dNMeK = CN[C@H](CCCCN)C(=O)O

B1: SEQ ID NO: 134 (peptide)
peptide: Ac-[Pen][NMeR]SDTL[Pen][Bip]E[dK]-NH2
modifications: disulfide 1-7 (inferred); also: homodimer via DIG
B2: SEQ ID NO: 137 (peptide)
peptide: Ac-[Pen][NMeR]SDTL[Pen][2Nal][β3hE][dK]-NH2
modifications: disulfide 1-7 (inferred); also: homodimer via DIG
B3: SEQ ID NO: 142 (peptide)
peptide: Ac-[Pen][NMeR]SDTL[Pen][1Nal][β3hE][NMeK]-NH2
modifications: disulfide 1-7 (inferred); also: dimer via DIG linker
B4: SEQ ID NO: 150 (peptide)
peptide: Ac-[Pen][NMeR]SDTL[Pen][Bip][β3hE][NMeK]-NH2
modifications: disulfide 1-7 (inferred); also: dimer via DIG linker
B5: SEQ ID NO: 154 (peptide)
peptide: Ac-[Pen][NMeR]SDTL[Pen][Tic][β3hE]-NH2
modifications: disulfide 1-7 (inferred)
B6: SEQ ID NO: 155 (peptide)
peptide: Ac-[Pen][NMeR]SDTL[Pen][2Nal][β3hE]-NH2
modifications: disulfide 1-7 (inferred)
B7: SEQ ID NO: 24 (peptide)
peptide: Ac-[Pen][NMeR]SDTL[Pen][1Nal]E[dK]-NH2
modifications: disulfide 1-7; also: dimer via DIG
B8: Peptide 210 (peptide)
peptide: Ac-[Pen][NMeR]SDTL[Pen][2Nal]E[dK]-NH2
modifications: disulfide 1-7
SMILES: CC(=O)N[C@@H]1C(=O)N(C)[C@@H](CCCNC(=N)N)C(=O)N[C@@H](CO)C(=O)N[C@@H](CC(=O)O)C(=O)N[C@@H]([C@@H](C)O)C(=O)N[C@@H](CC(C)C)C(=O)N[C@H](C(=O)N[C@@H](Cc2ccc3ccccc3c2)C(=O)N[C@@H](CCC(=O)O)C(=O)N[C@H](CCCCN)C(N)=O)C(C)(C)SSC1(C)C
B9: Peptide 212 (peptide)
peptide: Ac-[Pen][NMeR]SDTL[Pen][2Nal]E[dK]-NH2
modifications: disulfide 1-7; also: dimer via DIG, attachment site not given here
B10: Vedolizumab-biotin (antibody, INN chains, looked up, V domains shown)
VH: QVQLVQSGAEVKKPGASVKVSCKGSGYTFTSYWMHWVRQAPGQRLEWIGEIDPSESNTNYNQKFKGRVTLTVDISASTAYMELSSLRSEDTAVYYCARGGYDGWDYAIDYWGQGTLVTVSS
VL: DVVMTQSPLSLPVTPGEPASISCRSSQSLAKSYGNTYLSWYLQKPGQSPQLLIYGISNRFSGVPDRFSGSGSGTDFTLKISRVEAEDVGVYYCLQGTHQPYTFGQGTKVEIKR
modifications: biotin label
B11: SEQ ID NO: 32 (peptide)
peptide: Ac-[Pen][NMeR]SDTL[Pen][1Nal][dE][dK]-NH2
modifications: disulfide 1-7; also: dimer via DIG
B12: SEQ ID NO: 33 (peptide)
peptide: Ac-[Pen][NMeR]SDTL[Pen][2Nal][dE][dK]-NH2
modifications: disulfide 1-7; also: dimer via DIG
B13: SEQ ID NO: 38 (peptide)
peptide: Ac-[Pen][NMeR]SDTL[Pen][1Nal][dE][dNMeK]-NH2
modifications: disulfide 1-7; also: dimer via DIG
B14: SEQ ID NO: 41 (peptide)
peptide: Ac-[Pen][NMeR]SDTL[Pen][2Nal]E[dNMeK]-NH2
modifications: disulfide 1-7; also: dimer via DIG
B15: SEQ ID NO: 44 (peptide)
peptide: Ac-[Pen][NMeR]SDTL[Pen][1Nal]E[dNMeK]-NH2
modifications: disulfide 1-7; also: dimer via DIG
B16: Peptide X-biotin (peptide)
peptide: Ac-[Pen][NMeR]SDTL[Pen][Phe(4-tBu)][β3hE][dK]
modifications: disulfide 1-7 (inferred); also: biotin attached via PEG linker, site not given here, dimer of two subunits joined by DIG linker, as Peptide X
B17: SEQ ID NO: 47 (peptide)
chain: Ac-[Pen][NMeR]S[Prop acid]TL[Pen]WE[dK]-NH2
modifications: disulfide 1-7

Assays:
[1] = target: α4β1 (R&D Systems #5668-A4) (UniProt P13612); assay: competition ELISA vs VCAM-1
[2] = target: human α4β7 integrin on cells (human) (UniProt P13612); assay: RPMI8866 adhesion to MAdCAM-1
[3] = target: rh integrin α4β7 (R&D Systems #5397-A30) (human) (UniProt P13612); assay: competition ELISA vs MAdCAM-1
[4] = target: human α4β7 integrin on cells (human) (UniProt P13612); assay: PBMC memory T cell adhesion
[5] = target: mouse α4β7 integrin on TK1 cells (mouse) (UniProt Q00651); assay: TK1 adhesion to MAdCAM-1
mouse α4β7 integrin on TK1 cells (mouse), sequence (Q00651 41-1039, chain 1 of 2): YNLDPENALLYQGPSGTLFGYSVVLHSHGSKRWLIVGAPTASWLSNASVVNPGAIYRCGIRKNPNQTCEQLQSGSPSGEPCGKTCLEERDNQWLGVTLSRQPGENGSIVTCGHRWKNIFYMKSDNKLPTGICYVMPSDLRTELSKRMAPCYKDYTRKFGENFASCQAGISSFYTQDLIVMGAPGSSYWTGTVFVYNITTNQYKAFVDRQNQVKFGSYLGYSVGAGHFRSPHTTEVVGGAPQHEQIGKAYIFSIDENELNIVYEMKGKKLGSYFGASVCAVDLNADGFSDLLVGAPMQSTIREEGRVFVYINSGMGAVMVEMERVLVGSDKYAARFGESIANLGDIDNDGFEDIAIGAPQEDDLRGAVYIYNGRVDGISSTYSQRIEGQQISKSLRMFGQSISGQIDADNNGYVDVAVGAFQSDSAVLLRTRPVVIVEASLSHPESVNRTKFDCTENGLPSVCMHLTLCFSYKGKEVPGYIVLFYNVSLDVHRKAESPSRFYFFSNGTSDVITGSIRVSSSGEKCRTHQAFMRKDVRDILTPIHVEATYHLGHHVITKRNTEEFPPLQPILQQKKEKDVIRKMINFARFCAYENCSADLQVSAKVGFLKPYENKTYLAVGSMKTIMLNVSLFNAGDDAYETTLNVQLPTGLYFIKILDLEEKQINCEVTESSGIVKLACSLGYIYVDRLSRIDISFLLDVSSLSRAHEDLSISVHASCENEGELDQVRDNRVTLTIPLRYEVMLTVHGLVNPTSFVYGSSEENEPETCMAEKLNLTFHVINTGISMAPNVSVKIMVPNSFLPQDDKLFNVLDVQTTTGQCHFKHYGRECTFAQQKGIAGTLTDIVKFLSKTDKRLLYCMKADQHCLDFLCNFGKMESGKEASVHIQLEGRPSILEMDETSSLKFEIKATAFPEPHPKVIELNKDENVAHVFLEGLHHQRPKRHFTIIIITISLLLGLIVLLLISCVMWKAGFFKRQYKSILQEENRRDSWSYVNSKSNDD
mouse α4β7 integrin on TK1 cells (mouse), sequence (P26011 20-806, chain 2 of 2, further chain): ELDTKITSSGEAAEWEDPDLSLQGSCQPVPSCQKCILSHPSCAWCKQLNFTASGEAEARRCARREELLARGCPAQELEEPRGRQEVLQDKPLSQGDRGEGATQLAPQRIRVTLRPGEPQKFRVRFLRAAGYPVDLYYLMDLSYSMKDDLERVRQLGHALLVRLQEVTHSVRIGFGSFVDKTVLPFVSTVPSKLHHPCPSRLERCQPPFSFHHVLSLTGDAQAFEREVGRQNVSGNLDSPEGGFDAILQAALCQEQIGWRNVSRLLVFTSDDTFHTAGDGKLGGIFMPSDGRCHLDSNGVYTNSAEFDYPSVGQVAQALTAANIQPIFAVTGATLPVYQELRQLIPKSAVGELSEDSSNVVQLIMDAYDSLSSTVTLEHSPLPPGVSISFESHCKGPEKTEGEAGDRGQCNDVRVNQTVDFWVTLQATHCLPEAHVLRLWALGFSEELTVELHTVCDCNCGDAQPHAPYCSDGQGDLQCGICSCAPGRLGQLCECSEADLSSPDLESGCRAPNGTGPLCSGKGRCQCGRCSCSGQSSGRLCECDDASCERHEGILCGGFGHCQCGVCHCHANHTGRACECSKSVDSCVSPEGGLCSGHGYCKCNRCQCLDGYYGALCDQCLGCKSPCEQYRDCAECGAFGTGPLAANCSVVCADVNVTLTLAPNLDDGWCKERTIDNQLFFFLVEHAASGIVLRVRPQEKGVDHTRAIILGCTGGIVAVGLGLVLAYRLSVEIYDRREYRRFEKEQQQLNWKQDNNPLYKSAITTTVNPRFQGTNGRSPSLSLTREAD

[6] = target: human α4β7 integrin on cells (human) (UniProt P13612); assay: FACS, human whole blood, 1 mM MnCl2; Basophils
[7] = target: human α4β7 integrin on cells (human) (UniProt P13612); assay: FACS, human whole blood, 1 mM MnCl2; Monocytes
[8] = target: human α4β7 integrin on cells (human) (UniProt P13612); assay: FACS, human whole blood, 1 mM MnCl2; Eosinophils
[9] = target: human α4β7 integrin on cells (human) (UniProt P13612); assay: FACS, human whole blood, 1 mM MnCl2; Neutrophils
[10] = target: human α4β7 integrin on cells (human) (UniProt P13612); assay: FACS, human whole blood, 1 mM MnCl2; CD19+ B cells
[11] = target: human α4β7 integrin on cells (human) (UniProt P13612); assay: FACS, human whole blood, 1 mM MnCl2; CD4 naïve T cells
[12] = target: human α4β7 integrin on cells (human) (UniProt P13612); assay: FACS, human whole blood, 1 mM MnCl2; CD8 naïve T cells
[13] = target: rh integrin α4β7 (R&D Systems #5397-A30) (human) (UniProt P13612); assay: SPR, biotin antibody on streptavidin chip, soluble α4β7
[14] = target: human α4β7 integrin on cells (human) (UniProt P13612); assay: FACS, human whole blood, 1 mM MnCl2; CD4 memory T cells
[15] = target: human α4β7 integrin on cells (human) (UniProt P13612); assay: FACS, human whole blood, 1 mM MnCl2; CD8 memory T cells
[16] = target: human α4β7 integrin on cells (human) (UniProt P13612); assay: FACS, human whole blood, 1 mM MnCl2; NK cells CD16+ 56+
[17] = target: T1, rh integrin α4β7 (R&D Systems #5397-A30) (human, UniProt P13612 34-970; P26010 20-723); assay: SPR, biotin peptide on streptavidin chip, soluble α4β7
T1 construct: Bought recombinant heterodimer, coated on a nickel plate; also called immobilized α4β7; soluble α4β7 integrin

[18] = target: T1, rh integrin α4β7 (R&D Systems #5397-A30); assay: competition ELISA vs MAdCAM-1

Binder | IC50 [1] [nM] | IC50 [2] [nM] | IC50 [3] [nM] | IC50 [5] [nM] | other results
B1 | > 100 | < 10 | < 10 |  | 
B2 | > 1000 | < 10 | < 10 |  | 
B3 | > 500 | < 10 | < 10 |  | IC50 [4]: > 50 nM
B4 | > 1000 | < 10 | < 10 | < 10 | 
B5 | > 1000 | > 100 |  | > 1000 | 
B6 | > 1000 | > 25 |  | > 25 | 
B7 | > 100 | < 10 | < 10 |  | 
B8 | 200 | 40 | 11 | 60 | IC50 [4]: 517 nM
B9 | 70 | 2.5 | 2 | 2.5 | 
B10 |  |  |  |  | Percent positive staining [6]: 86%; Percent positive staining [7]: 7%; Percent positive staining [8]: 91%; Percent positive staining [9]: 0.45%; Percent positive staining [10]: 85%; Percent positive staining [11]: 55%; Percent positive staining [12]: 53%; Half-life for dissociation [13]: 0.717 h; Kd [13]: 59.5 nM; koff [13]: 0.000266 s⁻¹; kon [13]: 4470 M⁻¹ s⁻¹; Percent positive staining [14]: 22%; Percent positive staining [15]: 36%; Percent positive staining [16]: 42%
B11 | > 100 | > 10 | < 10 |  | 
B12 | > 100 | > 10 | < 10 |  | 
B13 | > 100 | < 10 | < 10 |  | 
B14 | > 100 | < 10 | < 10 |  | 
B15 | > 100 | < 10 | < 10 | < 10 | 
B16 |  |  |  |  | half-life for dissociation [17]: 11.1 h and ~11 h
B17 |  |  |  |  | IC50 [18]: > 1000 nM
